These results are taken from article PMC11109279, “Heliorhodopsin-mediated light-modulation of ABC transporter” (Nature Communications, 2024).

The target in one experiment is T1, OmrD (OmrD::his-tag) (Omithinimicrobium cerasi strain USBA17B2, UniProt A0A285VW85 1-577).
T1 construct: OmrD-His calculated as 62.86 kDa; also called pET21b-OmrD; source: E. coli C43 (DE3); purified (Ni2+-NTA agarose) for ITC; in DDM-solubilized membrane proteins for the His-tag pull-down
T1 sequence (looked up): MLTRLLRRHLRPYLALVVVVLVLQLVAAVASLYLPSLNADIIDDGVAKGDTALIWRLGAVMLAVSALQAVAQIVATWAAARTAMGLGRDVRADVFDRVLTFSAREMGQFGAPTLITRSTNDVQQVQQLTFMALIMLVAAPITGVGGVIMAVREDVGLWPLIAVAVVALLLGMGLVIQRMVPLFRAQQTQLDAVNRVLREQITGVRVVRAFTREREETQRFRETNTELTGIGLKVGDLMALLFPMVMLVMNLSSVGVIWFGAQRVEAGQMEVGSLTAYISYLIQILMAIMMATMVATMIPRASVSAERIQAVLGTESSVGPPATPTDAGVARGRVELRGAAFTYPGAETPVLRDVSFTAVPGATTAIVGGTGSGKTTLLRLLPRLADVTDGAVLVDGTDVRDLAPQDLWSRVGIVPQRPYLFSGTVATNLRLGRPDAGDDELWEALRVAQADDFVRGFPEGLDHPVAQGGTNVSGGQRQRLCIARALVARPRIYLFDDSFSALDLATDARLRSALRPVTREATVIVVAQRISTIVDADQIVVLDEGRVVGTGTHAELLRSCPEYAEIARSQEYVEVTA
Kind of experiment: ITC; OcHeR injected into the Omr protein; 25 °C, 500 rpm; buffer SD; MicroCal ITC200; one site binding model (sequential binding site model for R233Q); perfect saturation was not achieved. As to conditions: both partners purified. On the technique in general: Isothermal titration calorimetry measures the heat released or taken up as one component is titrated into another.

In experiment [1] the target is T2, heterodimeric multidrug resistance ABC transporter OmrDE (Omithinimicrobium cerasi strain USBA17B2, UniProt A0A285VW85 1-577; A0A285VWG3 1-661).
T2 construct: gene codon-optimized and synthesized; also called OmrDE heterodimer; source: E. coli C43 (DE3), OmrD and OmrE co-expressed, purified (DDM-solubilized membrane fraction, Ni2+-NTA agarose)
T2 sequence (looked up) 1: T1 sequence (looked up)
T2 sequence (looked up) 2: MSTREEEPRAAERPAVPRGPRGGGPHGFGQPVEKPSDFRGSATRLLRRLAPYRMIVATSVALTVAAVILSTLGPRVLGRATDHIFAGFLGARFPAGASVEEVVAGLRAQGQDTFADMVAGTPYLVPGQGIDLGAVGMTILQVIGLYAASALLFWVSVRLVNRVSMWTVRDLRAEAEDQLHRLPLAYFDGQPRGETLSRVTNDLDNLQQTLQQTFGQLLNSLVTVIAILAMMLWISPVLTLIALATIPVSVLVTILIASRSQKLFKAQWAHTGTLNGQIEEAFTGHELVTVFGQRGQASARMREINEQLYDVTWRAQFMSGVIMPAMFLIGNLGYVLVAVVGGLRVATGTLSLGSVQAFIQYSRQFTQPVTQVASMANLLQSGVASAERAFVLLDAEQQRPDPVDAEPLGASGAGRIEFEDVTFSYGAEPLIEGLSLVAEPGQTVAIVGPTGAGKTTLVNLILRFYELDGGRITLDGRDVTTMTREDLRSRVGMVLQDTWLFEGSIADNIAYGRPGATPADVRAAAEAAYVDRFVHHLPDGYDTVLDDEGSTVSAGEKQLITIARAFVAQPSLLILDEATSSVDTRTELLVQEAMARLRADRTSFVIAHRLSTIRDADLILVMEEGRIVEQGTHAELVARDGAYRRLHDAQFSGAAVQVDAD
The description is as above. To be noted: both partners purified.

For another experiment, the target named is T3, OmrE (OmrE-His) (Omithinimicrobium cerasi strain USBA17B2, UniProt A0A285VWG3 1-661).
T3 construct: OmrE-His calculated as 72.09 kDa; source: E. coli C43 (DE3), purified (DDM-solubilized membrane fraction, Ni2+-NTA agarose)
T3 sequence (looked up): T2 sequence (looked up) 2
The experiment is described as above. As to conditions: both partners purified.

For experiment [2], the target named is T4, heterodimeric multidrug resistance ABC transporter OmrDE (Omithinimicrobium cerasi strain USBA17B2, UniProt A0A285VW85 1-577; A0A285VWG3 1-661).
T4 chain 1: T1 sequence (looked up)
T4 chain 2: T2 sequence (looked up) 2
Kind of experiment: ITC; replicate #4.

For orientation: Kd means the concentration at which binding is half-saturated. A higher Kd goes with lower affinity.

B1: Omithinimicrobium cerasi strain USBA17B2 heliorhodopsin (OcHeR) WT (natural protein, UniProt A0A285W045 1-266, looked up)
chain: MGSTGTGSTASTTRADESRYAGLRRYNVVAAVVHAAQAVAVVVLATDFTLPMTASYLAGPPGSPPGEAVTLWDVPIPLAIATFLALSALFHVIVASPPFFDRYRRGLAQGHNYFRWVEYSLSSSLMIVIIAQLVGISDVVALLGLFGVNASMILFGWLQEKYHQPGDGGWLPFVFGCLAGAVPWVGIVLYTIAPGSTSGAEPPGFVYGIIVSLFLFFNVFALVQWLQYRPVGRFRDYLLGERLYITLSLVAKSALAWQIFGGTLAT
modifications: retinal Schiff base linked to K252
notes: gene codon-optimized for E. coli and chemically synthesized; source: E. coli C43 (DE3), purified (DDM-solubilized membrane fraction, Ni2+-NTA agarose)
Regarding B1, the Kd with OmrD (OmrD::his-tag) came out at 123 µM; in experiment [1], 91.6 µM; with OmrE (OmrE-His), 35.3 µM; in experiment [2], 62 µM. Further, the dH in experiment [1] is 48.9 kcal/mol; with OmrE (OmrE-His), 35.5 kcal/mol.
